# Assay results: patent US11485776B2, “Antibodies against infectious diseases” (priority 2015, dated 2022)
# Entries after “also recorded” stand apart in the source; their conditions may differ.
# Assays:
# [1] = molecular target: T1, alpha-enolase on the surface of C. albicans (Candida albicans, UniProt P30575); assay: Immunofluorescence staining of C. albicans; type: cell-based
# T1 construct: endogenous in cells; host or cells: C. albicans SC 5314 and clinical isolates CA6-17, CA7-26, CA7-3, CA10-50, CA7-30, CA10-65
# Excerpt: Anti-CaENO1 antibodies were used to detect alpha-enolase protein on C. albicans cell surface ENO1. (1) Detected with anti-CaENO1 IgY and developed by FITC conjugation rabbit anti-chicken antibodies. (2) Detected with scFv CaS1 and developed by goat anti-chicken light chain antibodies and FITC rabbit anti-goat antibodies. (3) An irrelevant scFv was used on negative control.
# Anti-CaENO1 IgY, scFv CaS1 and control scFv were used in immunofluorescence assay for identification of CaS1 antibody to alpha-enolase on cell surface of C. albicans.
# [2] = system: C. albicans; assay: Flow cytometry of C. albicans, propidium iodide cell death; type: cell-based, C. albicans SC 5314; settings: 100 ug antibody, 10^5 cells, 2 hours at 37° C.
# Procedure: (§1) (A) C. albicans SC 5314 were cultured overnight and 10^5 cells were added to each tube with 2 ml YPD medium. Experiment antibodies were added to each tube (1) Anti-CaENO1 IgY (100 ug) (2) Control scFv (100 ug) (3) scFv CaS1 (100 ug) (4) PBS, and cultured 2 hours at 37° C. in an incubator. Goat anti-chicken light chain (1:1500) antibody was used as detected antibody; FITC donkey anti-goat antibody (1:1000) was used as developed antibody to detect the reaction. Propidium iodide (PI) (1 ug/ml) was used to detect cell death. (B) Quantification of flow cytometry result in the panel A (*, p<0.05;**, p<0.01). Flow cytometry is represented as mean±SD of the duplicated experiment.
# (§2) Anti-CaENO1 IgY, scFv CaS1 and control scFv were contacted with C. albicans and then subjected to flow cytometry assay. Anti-CaENO1 IgY, scFv CaS1 and control scFv show 89.7+/−2.8%, 46.64+/−3.1% and 23+/−2.3% FITC fluorescence reaction (FIG. 7A), representing that the antibody can bind to alpha-enolase on the surface of C. albicans.
# [3] = molecular target: T1, alpha-enolase on the surface of C. albicans; assay: Flow cytometry of C. albicans, FITC binding; type: cell-based, C. albicans SC 5314; settings: 100 ug antibody, 10^5 cells, 2 hours at 37° C.
# Procedure: as §1, §2
# [4] = molecular target: T2, CaENO1 (Candida albicans, UniProt P30575); type: binding, C. albicans; settings: free form vs fixed form recombinant CaENO1
# T2 construct: using full-length CaENO1 (1323 bp) as template; His (N); made in house; host or cells: E. coli BL21
# Procedure: (A) Purified CaS1 scFv was used to recognize recombinant CaENO1 protein. The CaS1 scFv were used as primary antibody with series dilution. The goat anti-chicken light chain IgG was used as secondary antibody. The HRP conjugated donkey anti-goat IgG was used to decet. (B) OD value was calculated into percentage. […] The goat anti-chicken light chain IgG was used as secondary antibody. The HRP conjugated donkey anti-goat IgG was used to detect. (D) We calculated OD value into percentage.
# [5] = system: ENO1 proteins on Candida spp. (C. parapsilosis); type: binding
# Excerpt: (§3) (A) The total cell lysates of 5 Candida spp. were visualized on SDS-PAGE (left). After transferred onto the NC membranes, they were probed with purified anti-CaENO1 from 7th immunized chicken (1:3,000) (middle), or with CaS1 scFv (right) as described in material and methods. Lanes 1-6 in (A) contained the total cell lysates of C. albicans, C. krusei, C. tropicalis, C. parapsilosis and C. glabrate and purified recombinant CaENO1, respectively. […] (C) Total cell lysate from FLU^R and FLU^s and C. tropicalis (lanes 1-5 represent CT6-29, CT11-52, CT6-50, CT12-54, BCRC20520, respectively) by SDS-PAGE (left) and probed with CaS1 scFv by Western blot (right). (D) The purified ENO1 proteins of C. albicans, S. pneumonia, S. aureus, mouse and human were visualized on SDS-PAGE (left). After transferred onto the NC membranes, they were probed with purified CaS1 scFv (right) as described. Lane M contained protein markers.
# (§4) To detect the presence of ENO1 proteins, the purified recombinant ENO1 protein or cell lysates of five Candida spp were subjected to SDS-PAGE analysis, transferred onto nitrocellulose membranes (Amersham Biosciences, UK) and then blocked with 5% skim milk in TBST for 1 hr. The anti-CaENO1 IgY from chicken after 7th immunization (1:3,000) or purified CaS1 scFv antibody (1 μg/ml) were added and incubated for 1 hr at room temperature. After vigorous washings, horseradish peroxidase (HRP)-conjugated polyclonal donkey anti-chicken IgY antibodies (1:3,000) (Bethyl Laboratories, Montgomery, Tex., USA) were added and incubated for an additional 1 hr for detecting the bound IgY antibodies. However, goat anti-chicken light chain antibodies (1:3,000) (Bethyl Laboratories, Montgomery, Tex., USA), followed by HRP-conjugated donkey anti-goat IgG antibodies (Jackson ImmunoResearch, USA) were used for detecting the bound scFv antibodies. After washings as above, the membranes were developed with diaminobenzidine (DAB) or ECL substrate. The ImageQuant LAS4500 was used for ECL intensity detection.
# (§5) This CaS1 scFv was evaluated for its binding activity to different species of Candida. Five common strains of Candida were obtained, total lysate of five species Candida were analyzed on SDS-PAGE (FIG. 6A left) and subsequent Western blot.
# [6] = system: ENO1 proteins on Candida spp. (C. krusei); type: binding
# Excerpt: as §3, §4, §5
# [7] = system: ENO1 proteins on Candida spp. (C. tropicalis); type: binding
# Excerpt: as §3, §4, §5
# [8] = system: ENO1 proteins on Candida spp. (C. glabrate); type: binding
# Excerpt: as §3, §4, §5
# T2 sequence (P30575 whole entry): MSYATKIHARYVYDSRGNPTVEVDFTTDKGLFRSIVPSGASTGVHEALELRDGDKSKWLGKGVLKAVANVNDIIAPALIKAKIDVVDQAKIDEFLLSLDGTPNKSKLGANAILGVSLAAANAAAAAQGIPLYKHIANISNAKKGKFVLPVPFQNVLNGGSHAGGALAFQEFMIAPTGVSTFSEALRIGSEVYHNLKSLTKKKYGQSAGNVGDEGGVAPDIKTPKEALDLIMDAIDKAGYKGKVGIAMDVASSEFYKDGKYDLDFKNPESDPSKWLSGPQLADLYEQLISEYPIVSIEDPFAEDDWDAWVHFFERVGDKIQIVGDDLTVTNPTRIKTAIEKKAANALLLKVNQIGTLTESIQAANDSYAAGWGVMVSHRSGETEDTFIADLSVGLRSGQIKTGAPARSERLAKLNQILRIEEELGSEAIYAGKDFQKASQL
# T1 sequence (P30575 whole entry): as above
molecule,measurement,setting,value
"CaS1 scFv: anti-CaENO1 scFv monoclonal antibody from chicken phage library; light chain SEQ ID NO:11, heavy chain SEQ ID NO:12 (antibody, V domains shown, scFv linker; amino acid sequence comprised in a heavy chain of an anti-CaENO1 scFv monoclonal antibody (CaS1); amino acid sequence comprised in a light chain of an anti-CaENO1 scFv monoclonal antibody (CaS1)) VH: TVTLDESGGGLQTPRGALSLVCKASGFTFIDYGMQWVRQAPGKGLEWVAGIGSSGSSTNYGAAVKGRATISRDDGQSTVRLQLNNLRAEDTGTYYCAKSAGGYCVNGAGCNGGSIDAWGHGTEVIVSS VL: ALTQPSSVSANLGGTVKITCSGGSGSYGWYQQKSPGSAPVTVIYSNNQRPSNIPSRFSGSPSGSTGTLTITGVQADDEAVYFCGSRDSSYVGVFGAGTTLTVL",Binding to alpha-enolase on the surface of C. albicans (immunofluorescence),[1],bind
same,mortality rate of C. albicans (propidium iodide),[2],37+/−0.8%
same,FITC fluorescence reaction,[3],46.64+/−3.1%
same,KD by competitive ELISA,[4],4.45 µg/mL
same,Kd,[4]; read-out: KD by competitive ELISA,89 nM
same,Binding to ENO1 in total cell lysate of C. parapsilosis (Western blot),[5],cannot react
same,Binding to fluconazole resistance and susceptible C. parapsilosis from clinic (Western blot),[5],not
same,Binding to ENO1 in total cell lysate of C. krusei (Western blot),[6],cannot react
same,Binding to ENO1 in total cell lysate of C. tropicalis (Western blot),[7],specifically recognized; also recorded: reacted
same,Binding to fluconazole resistance and susceptible C. tropicalis from clinic (Western blot),[7],binds; also recorded: can bind
same,Binding to ENO1 in total cell lysate of C. glabrate (Western blot),[8],cannot react
same,Binding to fluconazole resistance and susceptible C. glabrate from clinic (Western blot),[8],not
